Assay results reported in patent publication US20250043302A1, “MUTATED HYDROXYPHENYLPYRUVATE DIOXYGENASE POLYPEPTIDE, AND CODING GENE AND USE THEREOF” (BEIJING DABEINONG BIOTECHNOLOGY CO., LTD., priority 2021, published 2025).

B1: AtHPPDm-F383W-02: nucleotide sequence encoding Arabidopsis thaliana HPPD with F383W; vector DBN11732 (nucleic acid)
DNA: ATGGGACATCAGAATGCTGCTGTATCAGAAAATCAAAATCATGATGATGGAGCCGCCTCCTCACCAGGGTTTAAGTTGGTTGGGTTCTCCAAGTTTGTACGGAAGAACCCAAAATCCGACAAGTTCAAGGTTAAACGCTTCCACCACATTGAATTCTGGTGCGGCGACGCCACCAATGTTGCTCGGCGTTTTTCATGGGGTTTAGGCATGAGATTCTCAGCAAAGAGTGACCTGAGCACCGGCAACATGGTTCATGCTAGCTATCTCTTAACATCTGGAGATTTGAGGTTTCTTTTCACGGCGCCGTACTCACCATCACTCTCCGCCGGCGAGATCAAACCCACCACGACTGCAAGCATACCTTCATTTGATCATGGTAGTTGCAGATCCTTCTTCTCGTCGCACGGCCTAGGGGTGCGCGCGGTCGCCATCGAAGTTGAAGATGCAGAATCAGCGTTTAGTATCAGCGTGGCAAATGGAGCTATTCCTTCCTCCCCTCCAATTGTCCTCAATGAGGCTGTAACTATTGCCGAGGTGAAGTTGTATGGAGATGTTGTGCTGAGATATGTTTCTTACAAGGCAGAGGACACTGAGAAATCTGAATTTTTGCCTGGTTTTGAAAGGGTCGAGGATGCTTCAAGTTTTCCTCTTGATTACGGCATACGACGGTTGGATCACGCGGTTGGAAATGTACCAGAACTTGGGCCGGCGCTCACTTATGTGGCTGGTTTCACTGGATTCCATCAATTTGCTGAGTTCACAGCTGATGATGTTGGGACTGCTGAAAGTGGGTTGAACTCTGCAGTCCTCGCCTCTAATGATGAAATGGTGCTCCTCCCGATCAACGAGCCTGTGCATGGCACCAAAAGGAAATCACAAATACAGACATATCTTGAGCACAATGAAGGTGCAGGGCTTCAACATCTTGCACTGATGTCTGAAGACATTTTCCGTACGCTGAGAGAGATGAGGAAGAGAAGTAGTATTGGTGGATTTGACTTCATGCCTTCTCCCCCACCAACTTACTACCAGAACTTGAAGAAGAGGGTTGGTGATGTGCTATCTGATGACCAGATCAAGGAGTGTGAAGAATTGGGCATTCTTGTTGATCGGGACGACCAAGGAACATTACTGCAGATATTTACAAAACCACTTGGTGACCGCCCCACTATTTGGATTGAGATCATACAAAGAGTCGGCTGCATGATGAAGGATGAGGAAGGAAAAGCATATCAATCTGGTGGTTGTGGCGGCTTTGGGAAAGGAAACTTCTCTGAGCTGTTCAAATCCATCGAGGAGTATGAGAAGACCTTGGAGGCCAAGCAGCTCGTGGGTTGA
modifications: AtHPPDm-F383W-02 Nucleotide Sequence
notes: vector DBN11732
B2: MsHPPD-02: nucleotide sequence encoding wild-type Medicago sativa HPPD; vector DBN11734 (nucleic acid)
DNA: ATGGCTATTGAAACCGAAACACAAACTCAGACTGGATTTAAACTGGTAGGGTTCAAGAATTTCGTTAGGGCTAATCCCAAGTCTGATCGTTTTAAGGTCAAGAGGTTCCACCACGTGGAGTTCTGGTGCACTGATGCAACCAACACGGCGCGGCGTTTTTCACATGGTCTTGGAATGCCTATTGTTGCAAAATCCGACCTCTCCACGGGGAACCAAACACACGCCTCTTACCTGCTACGGAGTGGTGACTTGAACTTCCTCTTCAGCGCCGCCTACTCACCCTCCATATCGTTGTCTTCACCATCCTCGACCGCAGCAATTCCTACATTTTCTGCGAGCAACTGCTTCTCTTTCTCTGCCAGTCATGGCCTCGCCGTCAGAGCAGTGGCCGTTGAAGTAGAGGATGCTGAACTTGCTTTTACAACTTCAGTGAATAATGGAGCAATACCGAGCAGTCCGCCGGTCATACTTGAGAATCATGTGAAGCTAGCGGAGGTGAGGCTTTATGGGGACGTCGTTTTAAGATATGTCAGCTACAATGATCCAAACCCCAATCAAAATCCAAATTTGTTGTTCCTTCCTGGCTTCGAGCGTGTTAGCGATGAATCTTCAAACTCTTCACTGGATTTTGGAATCAGACGGTTGGATCATGCTGTTGGAAATGTTCCTGAACTCTCGAGCGCTGTGAAATATGTGAAGGACTTCACCGGTTTTCATGAATTTGCTGAGTTTACTGCAGAAGATGTGGGTACATCAGAGAGTGGCTTGAATTCCGTGGTGCTCGCCAACAACGAGGAGACTGTACTCTTACCAATGAATGAGCCAGTCTATGGCACCAAGCGTAAATCTCAAATTGAGACATATTTGGAGCACAATGAAGGAGCTGGACTTCAGCATCTCGCGCTGAAGAGTGAGGACATCTTCCGCACCCTACGGGAGATGAGGAAAAGAAGTGGTGTTGGTGGGTTTGAATTCATGCCATCACCTCCTGTCACCTACTACAGGAACCTGAAGAACAGAGTTGGTGATGTACTTTCGGACGAGCAGATAAAGGAATGTGAAGAGTTGGGGATTTTGGTTGATAGAGATGATCAAGGAACACTCCTGCAGATTTTTACAAAACCAATTGGCGACCGCCCCACTATCTTCATAGAGATCATCCAGAGGGTGGGGTGCATGCTCAAAGACGAGGAAGGGAAGGAGTACCAGAAGGGCGGCTGTGGTGGTTTTGGGAAAGGAAACTTTTCTGAGTTATTCAAATCAATTGAAGAGTATGAGAAGACGCTTGAAACGCGTCGCACTGCTTGA
modifications: MsHPPD-02 Nucleotide Sequence
notes: vector DBN11734

Assays:
Format in all cases: in vivo
[1] = tested on: Arabidopsis thaliana T1 plants; assay: Topramezone tolerance of transgenic Arabidopsis thaliana T1 plants (spray, bleached leaf area grade, damage score); conditions: 7 DAT, Table 4; for Classification and statistics of the grade of pesticide damage: Grade 0 / Classification and statistics of the grade of pesticide damage: Grade 1 / Classification and statistics of the grade of pesticide damage: Grade 2 / Classification and statistics of the grade of pesticide damage: Grade 3: number of plants; for Scores: pesticide damage score 0-100
Method in brief: (§1)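 T1 transformants selected by glufosinate; 18-day-old plants, with empty-vector and wild-type controls, sprayed with topramezone (25–200 g ai/ha), isoxaflutole (35–280 g ai/ha) or mesotrione (52.5–420 g ai/ha), water as 0×. Bleached leaf area fraction scored at 7 DAT as grades 0–3.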

[2] = tested on: Arabidopsis thaliana T1 plants; assay: Mesotrione tolerance of transgenic Arabidopsis thaliana T1 plants (spray, bleached leaf area grade, damage score); parameters: Scores: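 damage score 0-100 computed as Σ(N×S)/(T×M)×100 over grades 0-3 with higher meaning more damage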; conditions: Arabidopsis thaliana T1 plants; for Grade 0 (classification and statistics of the grade of pesticide damage; number of plants) / Grade 1 (classification and statistics of the grade of pesticide damage; number of plants) / Grade 2 (classification and statistics of the grade of pesticide damage; number of plants) / Grade 3 (classification and statistics of the grade of pesticide damage; number of plants): 16 plants
Method in brief: as §1

[3] = tested on: Arabidopsis thaliana T1 plants; assay: Isoxaflutole tolerance of transgenic Arabidopsis thaliana T1 plants (spray, bleached leaf area grade, damage score); parameters: Scores (pesticide damage): scale not given here; conditions: spray, Arabidopsis thaliana T1 plants; for Classification and statistics of the grade of pesticide damage: Grade 0 (number of plants) / Classification and statistics of the grade of pesticide damage: Grade 1 (number of plants) / Classification and statistics of the grade of pesticide damage: Grade 2 (number of plants) / Classification and statistics of the grade of pesticide damage: Grade 3 (number of plants): 16 plants
Method in brief: as §1

[4] = isoxaflutole 35 g ai/ha (0.5x field concentration)
[5] = isoxaflutole 70 g ai/ha (1x field concentration)

| Molecule | Classification and statistics of the grade of pesticide damage: Grade 0 ([1]; topramezone 25 g ai/ha (1×)) | Classification and statistics of the grade of pesticide damage: Grade 1 ([1]; topramezone 25 g ai/ha (1×)) | Classification and statistics of the grade of pesticide damage: Grade 2 ([1]; topramezone 25 g ai/ha (1×)) | Classification and statistics of the grade of pesticide damage: Grade 3 ([1]; topramezone 25 g ai/ha (1×)) | Classification and statistics of the grade of pesticide damage: Grade 0 ([1]; topramezone 100 g ai/ha (4×)) | Classification and statistics of the grade of pesticide damage: Grade 1 ([1]; topramezone 100 g ai/ha (4×)) | Classification and statistics of the grade of pesticide damage: Grade 2 ([1]; topramezone 100 g ai/ha (4×)) | Classification and statistics of the grade of pesticide damage: Grade 3 ([1]; topramezone 100 g ai/ha (4×)) | Scores ([1]; topramezone 25 g ai/ha (1×)) | Scores ([1]; topramezone 100 g ai/ha (4×)) | Resistance evaluation ([1]; topramezone 25 g ai/ha (1×)) | Resistance evaluation ([1]; topramezone 100 g ai/ha (4×)) | Resistance evaluation ([2]; mesotrione 52.5 g ai/ha) | Scores ([2]; mesotrione 52.5 g ai/ha) | Grade 0 (classification and statistics of the grade of pesticide damage; number of plants) ([2]; mesotrione 52.5 g ai/ha) | Grade 1 (classification and statistics of the grade of pesticide damage; number of plants) ([2]; mesotrione 52.5 g ai/ha) | Grade 2 (classification and statistics of the grade of pesticide damage; number of plants) ([2]; mesotrione 52.5 g ai/ha) | Grade 3 (classification and statistics of the grade of pesticide damage; number of plants) ([2]; mesotrione 52.5 g ai/ha) | Resistance evaluation ([2]; mesotrione 105 g ai/ha) | Scores ([2]; mesotrione 105 g ai/ha) | also measured |
| --- | --- | --- | --- | --- | --- | --- | --- | --- | --- | --- | --- | --- | --- | --- | --- | --- | --- | --- | --- | --- | --- |
| B1 | 0 | 2 | 5 | 9 | 0 | 0 | 2 | 14 | 81 | 96 | non-resistant (non-resistant plants (scores 68-100)) | non-resistant (non-resistant plants (scores 68-100)) | Non-resistant | 100 | 0 | 0 | 0 | 16 | Non-resistant | 100 | Grade 0 (classification and statistics of the grade of pesticide damage; number of plants) ([2]; mesotrione 105 g ai/ha): 0; Grade 1 (classification and statistics of the grade of pesticide damage; number of plants) ([2]; mesotrione 105 g ai/ha): 0; Grade 2 (classification and statistics of the grade of pesticide damage; number of plants) ([2]; mesotrione 105 g ai/ha): 0; Grade 3 (classification and statistics of the grade of pesticide damage; number of plants) ([2]; mesotrione 105 g ai/ha): 16; Resistance evaluation [3, 4]: Non-resistant; Scores (pesticide damage) [3, 4]: 77; Classification and statistics of the grade of pesticide damage: Grade 0 (number of plants) [3, 4]: 0; Classification and statistics of the grade of pesticide damage: Grade 1 (number of plants) [3, 4]: 2; Classification and statistics of the grade of pesticide damage: Grade 2 (number of plants) [3, 4]: 7; Classification and statistics of the grade of pesticide damage: Grade 3 (number of plants) [3, 4]: 7; Resistance evaluation [3, 5]: Non-resistant; Scores (pesticide damage) [3, 5]: 100; Classification and statistics of the grade of pesticide damage: Grade 0 (number of plants) [3, 5]: 0; Classification and statistics of the grade of pesticide damage: Grade 1 (number of plants) [3, 5]: 0; Classification and statistics of the grade of pesticide damage: Grade 2 (number of plants) [3, 5]: 0; Classification and statistics of the grade of pesticide damage: Grade 3 (number of plants) [3, 5]: 16 |
| B2 | 0 | 0 | 0 | 16 | 0 | 0 | 0 | 16 | 100 | 100 | non-resistant (non-resistant plants (scores 68-100)) | non-resistant (non-resistant plants (scores 68-100)) | Non-resistant | 100 | 0 | 0 | 0 | 16 | Non-resistant | 100 | Grade 0 (classification and statistics of the grade of pesticide damage; number of plants) ([2]; mesotrione 105 g ai/ha): 0; Grade 1 (classification and statistics of the grade of pesticide damage; number of plants) ([2]; mesotrione 105 g ai/ha): 0; Grade 2 (classification and statistics of the grade of pesticide damage; number of plants) ([2]; mesotrione 105 g ai/ha): 0; Grade 3 (classification and statistics of the grade of pesticide damage; number of plants) ([2]; mesotrione 105 g ai/ha): 16; Resistance evaluation [3, 4]: Non-resistant; Scores (pesticide damage) [3, 4]: 100; Classification and statistics of the grade of pesticide damage: Grade 0 (number of plants) [3, 4]: 0; Classification and statistics of the grade of pesticide damage: Grade 1 (number of plants) [3, 4]: 0; Classification and statistics of the grade of pesticide damage: Grade 2 (number of plants) [3, 4]: 0; Classification and statistics of the grade of pesticide damage: Grade 3 (number of plants) [3, 4]: 16; Resistance evaluation [3, 5]: Non-resistant; Scores (pesticide damage) [3, 5]: 100; Classification and statistics of the grade of pesticide damage: Grade 0 (number of plants) [3, 5]: 0; Classification and statistics of the grade of pesticide damage: Grade 1 (number of plants) [3, 5]: 0; Classification and statistics of the grade of pesticide damage: Grade 2 (number of plants) [3, 5]: 0; Classification and statistics of the grade of pesticide damage: Grade 3 (number of plants) [3, 5]: 16 |
